Data: patent US20240400663A1 (Regeneron, published 2024)

Assays:
Assay in all cases: cell-based or functional assay
[1] = molecular target: T1, PfRH5 of Plasmodium falciparum strain FCR-1/FVO (on live parasites) (Plasmodium falciparum)
[2] = molecular target: T2, PfRH5 of Plasmodium falciparum strain Dd2 (on live parasites) (Plasmodium falciparum)
[3] = molecular target: PfRH5 of Plasmodium falciparum strain W2-mef (on live parasites) (Plasmodium falciparum)
[4] = molecular target: T3, PfRH5 of Plasmodium falciparum strain 7G8 (on live parasites) (Plasmodium falciparum)
[5] = molecular target: PfRH5 of Plasmodium falciparum strain Cam3.II (on live parasites) (Plasmodium falciparum)
[6] = molecular target: PfRH5 of Plasmodium falciparum strain D10 (on live parasites) (Plasmodium falciparum)
[7] = molecular target: T1, PfRH5 of Plasmodium falciparum strain …; remark: listed apart in the source
[8] = molecular target: PfRH5 of Plasmodium falciparum strain HB3 (on live parasites) (Plasmodium falciparum)
[9] = molecular target: PfRH5 of Plasmodium falciparum strain RF7 (on live parasites) (Plasmodium falciparum)
[10] = molecular target: T3, PfRH5 of Plasmodium falciparum strain …; remark: listed apart in the source
[11] = molecular target: T2, PfRH5 of Plasmodium falciparum strain …; remark: listed apart in the source

Row | Binder | Percent Maximum Growth Inhibition, FCR-1/FVO, mAb (6.67 µM) + AHIS (10%) [1] [%] | Percent Maximum Growth Inhibition, FCR-1/FVO, mAb (6.67 µM) + ANS (10%) [1] [%] | Percent Maximum Growth Inhibition, FCR-1/FVO, mAb (6.67 µM) + HHIS (10%) [1] [%] | Percent Maximum Growth Inhibition, FCR-1/FVO, mAb (6.67 µM) + HNS (10%) [1] [%] | Percent Maximum Growth Inhibition, FCR-1/FVO, mAb (6.67 µM) + No serum [1] [%] | Max growth inhibition (%) Dd2 [2] [%] | Max growth inhibition (%) W2-mef [3] [%] | Max growth inhibition (%) 7G8 [4] [%] | Max growth inhibition (%) Cam3.II [5] [%] | Max growth inhibition (%) D10 [6] [%] | Max growth inhibition (%) FCR-1/FVO [7] [%] | Max growth inhibition (%) HB3 [8] [%] | Max growth inhibition (%) RF7 [9] [%] | Max growth inhibition (%) 7G8, no chloroquine [10] [%] | Maximum growth inhibition (%) Dd2 [11] [%]
1 | H1H29100P (antibody, V domains shown) VH: QLQLQESGPGLVKPSETLSLTCTVSGGSISSSSYYWGWIRQPPGKGLEWIGIIYYSGSTYYNPSLKSRVTISVDTSKNQFSLKLSSVTAADTAVYYCARQDREALFDYWGQGTLVTVSS VL: EIVLTQSPDFQSVTPKEKVTITCRASQRIGSSLHWYQQKPDQSPKLLIKYASQSFSGVPSRFSGSGSGTDFTLTINSLEAEDAATYYCHQSSTLPTFGQGTRLEIKR | 82.5 | 73.2 | 81.9 | 82.4 | 83.9 | 64.6 | 67.3 | 66.4 | 52.4 | 81.7 | 66.9 | 62.6 | 17 | 48.9 | 65.7
2 | H1H29147P2 (antibody, V domains shown) VH: QVQLVQSGAEVKNPGSSVKVSCKASGGTFSSYTINWVRQAPGQGLEWMGGIIPLYGTANYAQKFQARVTISTDESTNTAYMELSNLRFEDTAVYFCASTLELRAFDAFDIWGQGTMVTVSS VL: not shown | 86.2 | 80.3 | 83.4 | 85.6 | 84.1 | 65.3 | 64.7 | 65.2 | 51.9 | 81.4 | 70.3 | 64.8 | 31.4 | 47.3 | 
3 | H1H29143P (antibody, V domains shown) VH: EVQLVESGGGLVQPGGSLRLSCAASGFTFNNYAMSWVRQAPGRGLEWVSAISGSGDSTYYSDSVKGRFTISRDNSKNTLYLQMNSLRAEDTAVYYCAKDQGLYYYGSGSFDYWGQGTLVTVSS VL: not shown |  |  |  |  |  | 62.7 | 58.3 | 61.9 | 53.2 | 79.4 | 67.2 | 60.9 |  |  | 56
4 | H1H29187P2 (antibody, V domains shown) VH: QVQLVESGGGVVQPGRFLRLSCAASGFTFSNSGMHWVRQAPGKGLEWVAGIWHDGSYKYYVDSVKGRFTISRDNSKNTLFLQMNSLRAEDTAVYYCARDDYYASGTSVDVWGQGTTVTVSS VL: not shown | 89.4 | 80.1 | 85.4 | 85.9 | 85.3 | 66 | 67.3 |  | 49.2 | 79.6 | 72.2 | 63.9 | 32.7 | 49.3 | 
5 | H1H29089P (antibody, V domains shown) VH: EVQLVQSGAEVKKPGESLKISCKGSGYSFTSYWIVWVRQMPGKGLEWMGIIYPGDSDTRYSPSFQGQVTISADKSISTAYLQWSSLKASDTAMYYCARQDITGTTGFDYWGQGTLVTVSS VL: DIQMTQSPSSLSASVGDRVTITCRASQSIRNYLNWYQQKPGKAPKLLIYAASSLQSGVPSRFSGSGSGTDFTLTISSLQPEDFATYFCQQSYSTPFTFGPGTKVDIKR | 84.3 | 75.7 | 85.2 | 85 | 85.3 | 71.3 | 66.4 | 70.1 | 56.2 | 82.3 | 66 | 59.1 | 28.9 | 51.1 | 
6 | H1H29104P (antibody, V domains shown) VH: EVQLVESGGGLVQPGRSLRLSCAASGFRFDDYAMHWVRQAPGKGLEWVSGINWNSGGKGYADSVQGRFTISRDNAKNSLYLQMNSLRTEDTALYYCAKDRGIAARLLSRDAFDMWGQGTMVTVSS VL: DIQLTQSPSFLSASVGDRVTITCWASQDVSSYLAWYQQKPGKSPKLLIFAASTLQGGIPSRFSGSGSGTEFTLTISSLRPEDFATYYCQHLNTYPYTFGQGTKLEIKR |  |  |  |  |  | 61.3 | 47.4 | 35.2 | 50 | 55.7 | 67.4 | 39.8 | 23.6 |  | 54.1
